From paper PMC2954371

Target: mosPTP-1 including the transmembrane region (91bp-2202bp), Aedes aegypti AAEL013105, on S2 cells (Aedes aegypti)
Experiment: flow cytometry on cells

mosGCTL-1 (mosquito Galactose-specific binding C-Type Lectin), Aedes aegypti AAEL000563 (natural protein)
percent of mosPTP-1-expressing cells that bound mosGCTL-1: > 40%
